One may read the Kd as a measure of binding affinity in units of concentration.

The values below come from patent publication US20240041922A1, “METHODS AND COMPOSITIONS” (Monash University, priority 2020, published 2024).

In one experiment the test system is C2C12 myoblasts. The experiment is described as follows: C2C12 myoblast proliferation (EdU incorporation). It counts as cell-based, mouse. Particulars: 6 h in growth media. On the procedure:
Larvae: Labelling and detection was carried out as previously described (Nguyen, P. D. et al. Muscle stem cells undergo extensive clonal drift during tissue growth via Meox1-mediated induction of G2 cell-cycle arrest. […] Cell culture: Cells were incubated for 1 h in media supplemented with 10 μM EdU. […] Cells were processed using the Click-iTTM EdU Alexa FluroTM 647 imaging Kit (Thermo Fisher) following the manufacturer's protocol. The mouse muscle cell line […]. Serial passaging and differentiation of myogenic cells isolated from dystrophic mouse muscle. Nature 270, 725 (1977) were cultured in growth media (Dulbecco's Modified Eagle Medium (4.5 g/l D-Glucose, No L Glutamine, No Sodium Pyruvate (Gibco))+20% Fetal Bovine Solution-One Shot (Gibco)+1% Glut Max 100x (Gibco)). Cells were maintained at 37° C., 5% CO2. Cells at 70% confluence, passage 8 were extracted from T75 flasks with 0.025% Tryspin EDTA (Gibco), neutralised in growth media, spun at 180×g for 5 min to pellet cells. The cells were then resuspended in 10 ml of fresh growth media. 500 μl of cells were plated on a 8-well on cover glass II (Sarstedt) chamber slide at a density of 1×10^3 cells/ml. Cells were left 4 h at 37° C. to re-attach. For drug treatments, the media were supplemented with appropriate doses and cultured for 6 h.

The subject of another experiment is PAX7+ satellite cells. As to the kind of experiment: Primary mouse myoblast mono- and co-cultures, PAX7+ satellite cell proliferation (EdU). Particulars: myoblast monoculture (MB) and MB+3T3 co-culture, 24 h. It counts as cell-based. How it is done:
Larvae: Labelling and detection was carried out as previously described (Nguyen, P. D. et al. Muscle stem cells undergo extensive clonal drift during tissue growth via Meox1-mediated induction of G2 cell-cycle arrest. […] Cell culture: Cells were incubated for 1 h in media supplemented with 10 μM EdU. […] Cells were processed using the Click-iTTM EdU Alexa FluroTM 647 imaging Kit (Thermo Fisher) following the manufacturer's protocol. For isolation of primary mouse myoblasts, limb skeletal muscle from E17.5 C57/BL6J mice were minced and digested in 0.125% Trypsin at 37° C. for 20 min. […] Myoblasts were again depleted for fibroblasts prior to co-culturing on gelatin-coated 48 well plates in DMEM+20% FBS+10% L929-conditioned medium. 100,000 myoblasts were plated with either 7,500 MafB/c-Maf deficient (Maf-DKO) macrophages (Aziz, A., Soucie, E., Sarrazin, […]. MafB/c-Maf deficiency enables self-renewal of differentiated functional macrophages. […] For drug treatments, the media were supplemented with appropriate doses and cultured for 24 h.

Experiment [1] has as its system wound-resident muscle stem cells. As to the kind of experiment: Larval zebrafish needle stab muscle injury, wound site proliferation (EdU). It counts as in vivo. Particulars: needle stab injury; for wound site muscle stem cell proliferation: agent alone. How it is done: 4dpf larvae were anaesthetized in 0.01% tricaine (MS-222) (Sigma-Aldrich) in Ringer's solution. Mechanical injures were targeted either to the dorsal or ventral myotome above the cloaca when the larvae is oriented dorsal to the top, anterior to the left. Needle-stick injury was carried out as previously described (Gurevich, D. B. el al. Asymmetric division of clonal muscle stem cells co-ordinate muscle regeneration in vivo. Science 353 6295 aad9969 (2016)). Briefly, the myotome was subjected to a single 30-gauge needle puncture that generates an extensive injury with many damaged muscle fibres. For laser-induced injury, anaesthetised larvae were mounted in a thin layer of 1% low-melt agarose in Ringer's solution. Injuries were carried out using a UV-nitrogen laser pulsed through a coumarin 440 nm dye cell coupled to a Zeiss Axioplan microscope (MicroPoint Laser System, Andor Technology). On average a laser injury required pulses for 5-10 sec from laser beams focused through a 40× water immersion objective. For time-lapse analysis of the immediate response to injury, muscle fibre ablations were achieved using a SIM scanner (Olympus) at 790 nm and 200 msec dwell time at 100% laser power on an Olympus FVMPE-RS upright multi-photon microscope equipped with a 25×/1.05 water immersion objective. Injury-responding macrophages were tracked using the manual tracking plugin in Fiji.
Cell ablation was carried out as previously described (Pisharath, H. & Parsons, M. J. in Zebrafish 133-143 (Springer, 2009)) with minor modifications. Larvae at the appropriate stage were incubated in 5-10 mM metronidazole (Mtz) (Sigma-Aldrich) in Ringer's solution and daily refreshed until experimental end point. Drug treatments were carried out by incubating 4 dpf needle stick injured larvae in 5 and 10 μM cenicriviroc (CVC) (Med Chem Express) and 5 and 10 μM maraviroc (MVC) (Med Chem Express) in Ringer's solution immediately post injury and refreshed daily.
The effect of drug treatment on laser ablation muscle injury was assayed by treating larvae with 5 μM CVC for 2 h prior to injury and with larvae being maintained in the drug until experimental end point. […] Chemokine supplementation experiments were carried out in plasticware coated with 0.1% bovine serum albumin (BSA) overnight (rinsed in Ringer's solution prior to use) to minimise protein adsorption. Larvae were treated with 57 nM recombinant human visfatin (hrNAMPT(1)) (PeproTech), 57 nM recombinant murine CCL8/MCP-2 (mrCCL8) (PeproTech) and combinations with Mtz and CVC.
Larvae: Labelling and detection was carried out as previously described (Nguyen, P. D. et al. Muscle stem cells undergo extensive clonal drift during tissue growth via Meox1-mediated induction of G2 cell-cycle arrest. Cell Stem Cell 21, 107-119. e106 (2017))^55 with minor alteration. 6 dpf/2 dpi larvae were pulsed with 2.5 nM EdU (Thermo Fisher) for 1h and chased for a further 1.5 h prior to fixation. Cell culture: Cells were incubated for 1 h in media supplemented with 10 μM EdU. Following Edu pulse, C2C12 cells were fixed immediately, while primary mouse myoblast co-cultures were rinsed in PBS, replaced with media and incubated for a further 2 h following which the cells were fixed. Cells were processed using the Click-iT™ EdU Alexa Fluro™ 647 imaging Kit (Thermo Fisher) following the manufacturer's protocol.

Experiment [2] has as its target T1, human recombinant CCR5 (hrCCR5) (Homo sapiens, UniProt P51681).
T1 construct: purchased Abcam
The experiment is described as follows: hrNAMPT binding to hrCCR5 (ELISA). Particulars: hrNAMPT(1) 0-800 nM on hrCCR5-coated ELISA plates, BSA binding deducted; read-out: dissociation constant (KD). On the procedure: hrNAMPT binding to hrCCR5: ELISA plates (Medium binding, Greiner Bio-One) were coated with 1% BSA or 20 nM of GST-fused recombinant human CCR5 (hrCCR5, Abcam) in PBS overnight at 4° C. Wells were blocked for 1 h at room temperature with 1% BSA in PBS containing 0.05% Tween-20 (PBS-T). Wells were washed 3 times with PBS-T and further incubated with hrNAMPT(1) (Peprotech) at increasing concentration (0 nM to 800 nM) for 1 h in PBS-T with 0.1% BSA.
In general terms: An ELISA detects its analyte on a solid surface through an enzyme-linked reagent.

A further experiment has as its system CCR5. The experiment is described as follows: NAMPTcif competition with NAMPT binding to CCR5. The text has this: (§1) As described above NAMPT, is a large homodimeric intracellular enzyme which acts as cytokine when released in the extracellular milieu. […] Moreover, the domain extends out from the core protein structure potentially facilitating receptor binding.

The next experiment relates to satellite cells. The experiment is described as follows: Satellite cell stimulation with NAMPTcif (proliferation). Particulars: compared to no stimulation control. It counts as cell-based.
Text: as §1

“Also recorded” adds a separate entry of the source.

T1 sequence (P51681 whole entry): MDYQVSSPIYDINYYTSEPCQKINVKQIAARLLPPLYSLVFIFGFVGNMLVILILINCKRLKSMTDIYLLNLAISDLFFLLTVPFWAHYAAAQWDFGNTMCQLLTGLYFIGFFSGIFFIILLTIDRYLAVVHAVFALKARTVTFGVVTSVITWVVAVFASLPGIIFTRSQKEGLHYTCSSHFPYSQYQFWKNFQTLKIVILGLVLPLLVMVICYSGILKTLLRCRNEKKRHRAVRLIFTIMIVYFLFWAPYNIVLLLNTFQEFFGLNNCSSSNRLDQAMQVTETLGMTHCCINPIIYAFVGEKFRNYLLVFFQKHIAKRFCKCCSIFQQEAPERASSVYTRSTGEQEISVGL

B1: mrCCL4: recombinant murine CCL4/MIP-1β (PeproTech), cognate CCR5 ligand (protein)
chain: APMGSDPPTSCCFSYTSRQLHRSFVMDYYETSSLCSKPAVVFLTKRGRQICANPSEPWVTEYMSDLELN
In the case of B1, in the experiment with C2C12 myoblasts, the “myoblast proliferation, factor added alone” value (“myoblast proliferation” below) is “functioned to enhance C2C12 proliferation”. In addition, the “myoblast proliferation” value with C2C12 myoblasts (listed as CCL4/MIP-1β) is reported as “could be recapitulated”. Also, the “satellite cell proliferation on supplementation” value in the experiment with PAX7+ satellite cells is reported as “enhanced proliferation; also recorded: mirrored the results of NAMPT addition”. Besides, in experiment [1], the “proliferation external to the injury zone” value was “failed to demonstrate discrimination between injury region and sites external to the damage”; the “wound site muscle stem cell proliferation” value was “functioned to enhance proliferation”.

B2: mrCCL8: recombinant murine CCL8/MCP-2 (PeproTech), canonical CCR5 ligand (protein)
chain: GPDKAPVTCCFHVLKLKIPLRVLKSYERINNIQCPMEAVVFQTKQGMSLCVDPTQKWVSEYMEILDQKSQILQP
For the molecule B2, the “myoblast proliferation” value in the experiment with C2C12 myoblasts is listed as “functioned to enhance C2C12 proliferation”. The “myoblast proliferation” value in the experiment with C2C12 myoblasts (listed as CCL8/MCP-2) is on record as “could be recapitulated”. In addition, in experiment [1], the “increase in cell proliferation external to the site of injury vs control” value was determined as 43.03±4.46%, the “proliferation external to the injury zone” value is listed as “also increased proliferation external to the injury zone” and the “wound site muscle stem cell proliferation” value is “functioned to increase proliferation in the wound site”. The “increase in muscle stem cell proliferation within the wound site vs control” value in experiment [1] (supplementation) is 28.34±4.48%.

B3: hrNAMPT(1): recombinant human visfatin (PeproTech) (protein)
chain: PPNTSKVYSYFECREKKTENSKLRKVKYEETVFYGLQYILNKYLKGKVVTKEKIQEAKDVYKEHFQDDVFNEKGWNYILEKYDGHLPIEIKAVPEGFVIPRGNVLFTVENTDPECYWLTNWIETILVQSWYPITVATNSREQKKILAKYLLETSGNLDGLEYKLHDFGYRGVSSQETAGIGASAHLVNFKGTDTVAGLALIKKYYGTKDPVPGYSVPAAEHSTITAWGKDHEKDAFEHIVTQFSSVPVSVVSDSYDIYNACEKIWGEDLRHLIVSRSTQAPLIIRPDSGNPLDTVLKVLEILGKKFPVTENSKGYKLLPPYLRVIQGDGVDINTLQEIVEGMKQKMWSIENIAFGSGGGLLQKLTRDLLNCSFKCSYVVTNGLGINVFKDPVADPNKRSKKGRLSLHRTPAGNFVTLEEGKGDLEEYGQDLLHTVFKNGKVTKSYSFDEIRKNAQLNIELEAAHH
In the case of B3, in experiment [2], the Kd is 172 ± 18 nM. In addition, the “myoblast proliferation” value in the experiment on C2C12 myoblasts was “dose dependent increase in myoblast proliferation; also recorded: comparable and significant dose dependent increases in myoblast proliferation”.

B4: NAMPTcif: recombinantly produced C-terminal fragment of NAMPT, termed cytokine finger (cif) (protein)
chain: MSYVVTNGLGVNVFKDPVADPNKRSKKGRLSLHRTPAGNFVTLEEGKGDLEEYGHDLLHTVFKNGKVTKSYSFDEVRKNAQLNIEQDVAPHHHHHHH
On to B4, for which, in the experiment with CCR5, the “inhibition of NAMPT binding to CCR5” value is reported as “inhibits the binding of NAMPT to CCR5”. Moreover, the satellite cell proliferation result in the experiment with satellite cells is given as “promotes proliferation in a dose-dependent manner”; in the experiment with satellite cells (listed as cif) it was “stimulates satellite cell proliferation in a dose-dependent manner”.

B5: hrNAMPT(2): recombinant human visfatin (Enzo Life Sciences) (protein)
chain: MNPAAEAEFNILLATDSYKVTHYKQYPPNTSKVYSYFECREKKTENSKLRKVKYEETVFYGLQYILNKYLKGKVVTKEKIQEAKDVYKEHFQDDVFNEKGWNYILEKYDGHLPIEIKAVPEGFVIPRGNVLFTVENTDPECYWLTNWIETILVQSWYPITVATNSREQKKILAKYLLETSGNLDGLEYKLHDFGYRGVSSQETAGIGASAHLVNFKGTDTVAGLALIKKYYGTKDPVPGYSVPAAEHSTITAWGKDHEKDAFEHIVTQFSSVPVSVVSDSYDIYNACEKIWGEDLRHLIVSRSTQAPLIIRPDSGNPLDTVLKVLEILGKKFPVTENSKGYKLLPPYLRVIQGDGVDINTLQEIVEGMKQKMWSIENIAFGSGGGLLQKLTRDLLNCSFKCSYVVTNGLGINVFKDPVADPNKRSKKGRLSLHRTPAGNFVTLEEGKGDLEEYGQDLLHTVFKNGKVTKSYSFDEIRKNAQLNIELEAAHH
Turning to B5, the “myoblast proliferation” value in the experiment with C2C12 myoblasts is “dose dependent increase in myoblast proliferation; also recorded: comparable and significant dose dependent increases in myoblast proliferation”.
